Data published in US20240270821A1, “GIP/GLP1/GCG TRI-RECEPTOR AGONISTS AND USES THEREOF” (priority 2023, published 2024).
Numbering of substitutions follows the chain as printed.

T1: human GIP receptor (human) (UniProt P48546)
T1 sequence (looked up): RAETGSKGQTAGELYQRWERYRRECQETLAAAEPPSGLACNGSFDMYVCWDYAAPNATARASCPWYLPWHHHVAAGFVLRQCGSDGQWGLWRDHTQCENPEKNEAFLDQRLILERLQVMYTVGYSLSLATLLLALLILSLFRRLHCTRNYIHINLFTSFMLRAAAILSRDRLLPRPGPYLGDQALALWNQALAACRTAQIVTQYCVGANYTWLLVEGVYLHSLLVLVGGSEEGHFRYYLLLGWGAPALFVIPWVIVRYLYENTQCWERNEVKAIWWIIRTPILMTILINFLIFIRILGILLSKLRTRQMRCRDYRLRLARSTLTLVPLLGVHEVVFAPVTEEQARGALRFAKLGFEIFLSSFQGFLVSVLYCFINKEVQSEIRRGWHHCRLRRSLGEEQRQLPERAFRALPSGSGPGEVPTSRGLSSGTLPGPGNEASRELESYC

B1: Example 1118 (peptide)
chain: YXQGTFTSDXSQXLDKKAQXAFIEXLIEXGPSSGAPPPSGTE
modifications: Lys acylated with (γGlu)2-C18 diacid; non-natural residues; C-amide; synthetic construct; SITE 2: note = 2-Aminoisobutyric Acid; SITE 10: note = 3-(4-Pyridyl)-L-alanine; SITE 13: note = alpha-methyl-leucine; SITE 17: note = Lysine is chemically modified through conjugation of the epsilon-amino group of the Lysine side chain with (gamma-Glu)2-CO-(CH2)16-CO2H; SITE 20:
B2: Example 1121 (peptide)
chain: B1 chain with T41E
modifications: Aib, 4Pal, αMeL, Me4Pal, acylated K, C-terminal amide; synthetic construct; SITE 2: note = 2-Aminoisobutyric Acid; SITE 10: note = 3-(4-Pyridyl)-L-alanine; SITE 13: note = alpha-methyl-leucine; SITE 17: note = Lysine is chemically modified through conjugation of the epsilon-amino group of the Lysine side chain with (gamma-Glu)2-CO-(CH2)16-CO2H; SITE 20:
B3: Example 672 (SEQ ID NO: 678) (peptide)
chain: YXQGTXTSDXXIXLDXKAAXEFIEXLLEGGPSSGAPPPSGS
modifications: synthetic construct; SITE 2: note = 2-Aminoisobutyric Acid; SITE 6: note = alpha-methyl-2-fluoro-L-phenylalanine; SITE 10: note = 3-(4-Pyridyl)-L-alanine; SITE 11: note = alpha-methyl-L-serine; SITE 13: note = alpha-methyl-leucine; SITE 16: note = L-ornithine; SITE 17: note = Lysine is chemically mo
B4: Example 693 (SEQ ID NO: 699) (peptide)
chain: B3 chain with L27V
modifications: synthetic construct; SITE 2: note = 2-Aminoisobutyric Acid; SITE 6: note = alpha-methyl-2-fluoro-L-phenylalanine; SITE 10: note = 3-(4-Pyridyl)-L-alanine; SITE 11: note = alpha-methyl-L-serine; SITE 13: note = alpha-methyl-leucine; SITE 16: note = L-ornithine; SITE 17: note = Lysine is chemically mo
B5: Example 695 (SEQ ID NO: 701) (peptide)
chain: B3 chain with L27V, A35E
modifications: synthetic construct; SITE 2: note = 2-Aminoisobutyric Acid; SITE 6: note = alpha-methyl-2-fluoro-L-phenylalanine; SITE 10: note = 3-(4-Pyridyl)-L-alanine; SITE 11: note = alpha-methyl-L-serine; SITE 13: note = alpha-methyl-leucine; SITE 16: note = L-ornithine; SITE 17: note = Lysine is chemically mo
B6: Example 891 (peptide)
chain: YXQGTFTSDXSQXLDKKAQXAFIEYLIEXGPSSGAPPPSGSGE
modifications: not fully specified; possible C-terminal amide; synthetic construct; SITE 2: note = 2-Aminoisobutyric Acid; SITE 10: note = 3-(4-Pyridyl)-L-alanine; SITE 13: note = alpha-methyl-leucine; SITE 17: note = Lysine is chemically modified through conjugation of the epsilon-amino group of the Lysine side chain with (gamma-Glu)2-CO-(CH2)16-CO2H; SITE 20:
B7: Example 1113 (peptide)
chain: B6 chain with K16X, A21Q, Y25X, G42E
modifications: non-natural residues; lipidated Lys; C-terminal amide; synthetic construct; SITE 2: note = 2-Aminoisobutyric Acid; SITE 10: note = 3-(4-Pyridyl)-L-alanine; SITE 13: note = alpha-methyl-leucine; SITE 16: note = L-ornithine; SITE 17: note = Lysine is chemically modified through conjugation of the epsilon-amino group of the Lysine side chain with D-Glutami
B8: Example 946 (peptide)
chain: B6 chain with K16X, Y25X, I27L, X29G, G42E
modifications: synthetic construct; SITE 2: note = 2-Aminoisobutyric Acid; SITE 10: note = 3-(4-Pyridyl)-L-alanine; SITE 13: note = alpha-methyl-leucine; SITE 16: note = L-ornithine; SITE 17: note = Lysine is chemically modified through conjugation of the epsilon-amino group of the Lysine side chain with (gamma-Gl)
B9: Example 1109 (peptide)
chain: B6 chain with K16X, A21Q, Y25X, G42E
modifications: Aib, 4Pal, αMeL, Orn, Me4Pal, αMeY; acylated lysine; amide; synthetic construct; SITE 2: note = 2-Aminoisobutyric Acid; SITE 10: note = 3-(4-Pyridyl)-L-alanine; SITE 13: note = alpha-methyl-leucine; SITE 16: note = L-ornithine; SITE 17: note = Lysine is chemically modified through conjugation of the epsilon-amino group of the Lysine side chain with (2-[2-(2-
B10: Example 1110 (peptide)
chain: B6 chain with K16X, Y25X, E28A, G42E
modifications: non-natural residues, acylated Lys, C-terminal amide; synthetic construct; SITE 2: note = 2-Aminoisobutyric Acid; SITE 10: note = 3-(4-Pyridyl)-L-alanine; SITE 13: note = alpha-methyl-leucine; SITE 16: note = L-ornithine; SITE 17: note = Lysine is chemically modified through conjugation of the epsilon-amino group of the Lysine side chain with (2-[2-(2-
B11: Example 937 (peptide)
chain: B6 chain with K16X, G42E
modifications: synthetic construct; SITE 2: note = 2-Aminoisobutyric Acid; SITE 10: note = 3-(4-Pyridyl)-L-alanine; SITE 13: note = alpha-methyl-leucine; SITE 16: note = L-ornithine; SITE 17: note = Lysine is chemically modified through conjugation of the epsilon-amino group of the Lysine side chain with (gamma-Gl)
B12: Example 1122 (peptide)
chain: B6 chain with Y25X, G42E
modifications: Aib, 4Pal, αMeL, Me4Pal; K (γGlu)2-C18 diacid; amide; synthetic construct; SITE 2: note = 2-Aminoisobutyric Acid; SITE 10: note = 3-(4-Pyridyl)-L-alanine; SITE 13: note = alpha-methyl-leucine; SITE 17: note = Lysine is chemically modified through conjugation of the epsilon-amino group of the Lysine side chain with (gamma-Glu)2-CO-(CH2)16-CO2H; SITE 20:
B13: Example 1112 (peptide)
chain: B6 chain with K16X, Y25X, G42E
modifications: non-natural residues; acylated Lys; C-terminal amide; synthetic construct; SITE 2: note = 2-Aminoisobutyric Acid; SITE 10: note = 3-(4-Pyridyl)-L-alanine; SITE 13: note = alpha-methyl-leucine; SITE 16: note = L-ornithine; SITE 17: note = Lysine is chemically modified through conjugation of the epsilon-amino group of the Lysine side chain with D-Glutami
B14: Example 944 (peptide)
chain: B6 chain with Q12X, Y25X, I27L, X29G, G42E
modifications: synthetic construct; SITE 2: note = 2-Aminoisobutyric Acid; SITE 10: note = 3-(4-Pyridyl)-L-alanine; SITE 12: note = L-ornithine; SITE 13: note = alpha-methyl-leucine; SITE 17: note = Lysine is chemically modified through conjugation of the epsilon-amino group of the Lysine side chain with (gamma-Gl)
B15: Example 1107 (peptide)
chain: B6 chain with K16X, Y25X, E28A, G42E
modifications: non-natural residues, lipidated Lys, C-terminal amide; synthetic construct; SITE 2: note = 2-Aminoisobutyric Acid; SITE 10: note = 3-(4-Pyridyl)-L-alanine; SITE 13: note = alpha-methyl-leucine; SITE 16: note = L-ornithine; SITE 17: note = Lysine is chemically modified through conjugation of the epsilon-amino group of the Lysine side chain with (gamma-Gl)
B16: Example 945 (peptide)
chain: B6 chain with Y25X, I27L, X29G, G42E
modifications: synthetic construct; SITE 2: note = 2-Aminoisobutyric Acid; SITE 10: note = 3-(4-Pyridyl)-L-alanine; SITE 13: note = alpha-methyl-leucine; SITE 17: note = Lysine is chemically modified through conjugation of the epsilon-amino group of the Lysine side chain with (gamma-Glu)2-CO-(CH2)16-CO2H; SITE 20:
B17: Example 1127 (peptide)
chain: B6 chain with S41T
modifications: Aib, 4Pal, Me4Pal, alpha-methyl-Leu, lipidated Lys, C-terminal amide; synthetic construct; SITE 2: note = 2-Aminoisobutyric Acid; SITE 10: note = 3-(4-Pyridyl)-L-alanine; SITE 13: note = alpha-methyl-leucine; SITE 17: note = Lysine is chemically modified through conjugation of the epsilon-amino group of the Lysine side chain with (gamma-Glu)2-CO-(CH2)16-CO2H; SITE 20:
B18: Example 1114 (peptide)
chain: B6 chain with K16X, Y25X, E28A, G42E
modifications: not fully specified; Aib, 4Pal, αMeL, Orn, Me4Pal, αMeY; γGlu-C18 diacid Lys; C-term amide; synthetic construct; SITE 2: note = 2-Aminoisobutyric Acid; SITE 10: note = 3-(4-Pyridyl)-L-alanine; SITE 13: note = alpha-methyl-leucine; SITE 16: note = L-ornithine; SITE 17: note = Lysine is chemically modified through conjugation of the epsilon-amino group of the Lysine side chain with D-Glutami
B19: Example 1108 (peptide)
chain: B6 chain with K16X, Y25X, G42E
modifications: non-natural residues; C18 diacid-γGlu-AEEA on Lys; C-terminal amide; synthetic construct; SITE 2: note = 2-Aminoisobutyric Acid; SITE 10: note = 3-(4-Pyridyl)-L-alanine; SITE 13: note = alpha-methyl-leucine; SITE 16: note = L-ornithine; SITE 17: note = Lysine is chemically modified through conjugation of the epsilon-amino group of the Lysine side chain with (2-[2-(2-
B20: Example 682 (SEQ ID NO: 688) (peptide)
chain: YXQGTXTSDXSIXLDXKAQXXFIEXLIEGGPSSGEPPPSGE
modifications: synthetic construct; SITE 2: note = 2-Aminoisobutyric Acid; SITE 6: note = alpha-methyl-2-fluoro-L-phenylalanine; SITE 10: note = 3-(4-Pyridyl)-L-alanine; SITE 13: note = alpha-methyl-leucine; SITE 16: note = L-ornithine; SITE 17: note = Lysine is chemically modified through conjugation of the epsil

molecular target: hGLP-1R (Homo sapiens, UniProt P43220); test: cell-based or functional assay
Sequence (P43220 24-463): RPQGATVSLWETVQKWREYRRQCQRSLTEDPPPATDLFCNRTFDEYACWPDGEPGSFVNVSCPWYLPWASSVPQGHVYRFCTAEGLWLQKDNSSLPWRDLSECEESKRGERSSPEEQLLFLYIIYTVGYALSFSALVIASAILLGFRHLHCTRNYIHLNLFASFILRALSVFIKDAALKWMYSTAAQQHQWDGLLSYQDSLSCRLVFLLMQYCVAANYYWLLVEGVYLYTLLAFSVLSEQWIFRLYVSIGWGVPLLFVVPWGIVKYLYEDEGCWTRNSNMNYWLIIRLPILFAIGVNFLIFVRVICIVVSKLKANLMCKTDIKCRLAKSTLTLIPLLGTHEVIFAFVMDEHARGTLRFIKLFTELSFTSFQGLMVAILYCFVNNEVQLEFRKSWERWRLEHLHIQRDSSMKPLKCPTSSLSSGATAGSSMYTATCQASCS

Row | Binder | Relative cAMP EC50 [nM]
1 | B1 | 5.42
2 | B2 | 5.23
3 | B3 | 0.389
4 | B4 | 0.161
5 | B5 | 0.254
6 | B6 | 3.25
7 | B7 | 1.12
8 | B8 | 2.05
9 | B9 | 2.3
10 | B10 | 0.508
11 | B11 | 2.52
12 | B12 | 5.66
13 | B13 | 0.957
14 | B14 | 4.86
15 | B15 | 0.51
16 | B16 | 3.9
17 | B17 | 6.16
18 | B18 | 0.84
19 | B19 | 0.752
20 | B20 | 0.212

molecular target: human glucagon receptor (human) (UniProt P47871); test: cell-based or functional assay
Sequence (P47871 26-477): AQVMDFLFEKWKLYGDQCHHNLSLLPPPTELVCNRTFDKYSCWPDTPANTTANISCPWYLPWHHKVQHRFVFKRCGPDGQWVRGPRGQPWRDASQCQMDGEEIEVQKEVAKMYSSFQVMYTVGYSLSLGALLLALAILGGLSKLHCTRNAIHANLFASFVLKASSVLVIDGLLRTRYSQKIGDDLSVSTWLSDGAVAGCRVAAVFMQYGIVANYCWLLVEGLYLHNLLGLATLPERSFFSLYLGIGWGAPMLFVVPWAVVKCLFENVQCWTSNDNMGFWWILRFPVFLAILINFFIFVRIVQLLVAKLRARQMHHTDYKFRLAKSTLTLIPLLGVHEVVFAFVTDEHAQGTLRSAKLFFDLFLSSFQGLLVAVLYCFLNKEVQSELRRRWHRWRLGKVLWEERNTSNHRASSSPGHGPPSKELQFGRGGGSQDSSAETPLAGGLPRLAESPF

Row | Binder | Relative cAMP EC50 [nM]
21 | B1 | 6.52
22 | B2 | 8.83
23 | B3 | 1.19
24 | B4 | 2.39
25 | B5 | 1.93
26 | B6 | 3.14
27 | B7 | 14.4
28 | B8 | 16.5
29 | B9 | 10.8
30 | B10 | 5.91
31 | B11 | 5.52
32 | B12 | 10.3
33 | B13 | 10.7
34 | B14 | 6.16
35 | B15 | 5.66
36 | B16 | 18
37 | B17 | 5.95
38 | B18 | 11.5
39 | B19 | 4.96
40 | B20 | 1.91

molecular target: T1, human GIP receptor (human); test: cell-based or functional assay

Row | Binder | Relative cAMP EC50 [nM]
41 | B1 | 0.128
42 | B2 | 0.115
43 | B3 | 0.014
44 | B4 | 0.0104
45 | B5 | 0.0136
46 | B6 | 0.155
47 | B7 | 0.0414
48 | B8 | 0.353
49 | B9 | 0.0626
50 | B10 | 0.059
51 | B11 | 0.222
52 | B12 | 0.109
53 | B13 | 0.254
54 | B14 | 0.216
55 | B15 | 0.0447
56 | B16 | 0.246
57 | B17 | 0.167
58 | B18 | 0.0478
59 | B19 | 0.0507
60 | B20 | 0.00661
